Data published in patent publication US20150152406A1 (NBE THERAPEUTICS, published 2015).

Biological target: T1, 6xHis-tagged, recombinant human CD30 (Sino Biological Inc., order #10777-H08H) (human, UniProt P28908 19-379)
T1 construct: Bought soluble reagent; It was detected with biotinylated anti-His-tag antibody and streptavidin-PE; also called CD30 antigen; CD30-6xHis
T1 sequence: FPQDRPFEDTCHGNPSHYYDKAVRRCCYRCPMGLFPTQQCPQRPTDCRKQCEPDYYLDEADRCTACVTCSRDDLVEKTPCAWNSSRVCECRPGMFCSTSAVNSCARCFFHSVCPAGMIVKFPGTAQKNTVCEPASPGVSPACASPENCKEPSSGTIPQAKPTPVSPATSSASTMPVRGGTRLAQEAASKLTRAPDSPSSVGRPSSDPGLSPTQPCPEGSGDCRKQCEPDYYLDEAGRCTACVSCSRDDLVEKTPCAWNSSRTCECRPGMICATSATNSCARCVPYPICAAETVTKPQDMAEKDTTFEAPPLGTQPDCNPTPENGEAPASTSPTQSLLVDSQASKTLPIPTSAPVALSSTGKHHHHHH
Experiment: flow cytometry; 63-12 cells displaying anti-CD19 IgG as background, stained with His-tagged CD30 / anti-His-biotin / strep-PE
Protocol: After the final FACS staining, the cells were again washed twice in ice-cold PBS, 2% FCS, and then resuspended in 1.0 ml PBS, 2% FCS, after which the cells were subjected to FACS analysis and cell sorting of Ig-kappaLC/CD30 positive cells (see FIG. 13).

B1: humanized anti-human CD19 antibody hBU12, membrane bound human IgG1 on the surface of 63-12 proB cells (antibody, V domains shown)
VH: QVQLQESGPGLVKPSQTLSLTCTVSGGSISTSGMGVGWIRQHPGKGLEWIGHIWWDDDKRYNPALKSRVTISVDTSKNQFSLKLSSVTAADTAVYYCARMELWSYYFDYWGQGTLVTVSS
VL: EIVLTQSPATLSLSPGERATLSCSASSSVSYMHWYQQKPGQAPRLLIYDTSKLASGIPARFSGSGSGTDFTLTISSLEPEDVAVYYCFQGSVYPFTFGQGTKLEIK
notes: also called anti-CD19 mAb hBU12; anti-CD19 mAb
- binding result: no binding (tested: 0.1 µg CD30 in 1 ml)
